This note sets out measurements from patent US9518084B2, “Epitope tag for affinity-based applications” (VIB VZW, priority 2010, dated 2016).

Test [1] relates to Nb458-gaaEPEA (SEQ ID NO:8). As to the kind of experiment: Solid phase ELISA, bivalent versus monovalent NbSyn2 alkaline phosphatase conjugate. In kind it is binding. Conditions: alkaline phosphatase conjugates, dilutions 1/250 to 1/4000, OD405.
For test [2], the system named is EPEA (SEQ ID NO:1)-tagged Rev protein. Put plainly: In vivo detection of EPEA-tagged Rev in transfected HeLa cells by confocal microscopy. In kind it is cell-based, HIV. Conditions: nanobody fused to mKO1 or GFP, GYQDYEPEA and EPEA tags.
Text: In another set of experiments, we explored the use of the EPEA (SEQ ID NO:1) tag to detect/visualize the expression of recombinant proteins within a (living) eukaryotic cell. […] Cells that are double-transfected with Rev-[sequence] (SEQ ID NO:10) or Rev-[sequence]
The two different tags [sequence] (SEQ ID NO:2) and EPEA (SEQ ID NO:1) were C-terminal fused to Rev by PCR using Takara Ex Taq polymerase (TAKARA BIO INC).
HeLa, human epithelial cells were maintained using standard procedures until confluent in DMEM medium with 10% fetal calf serum. For transfection of plasmid DNA in HeLa, cells were harvested by a Trypsin/EDTA treatment, counted and plated onto glass bottom microwell dishes (MatTek corporation). Transfections were preformed according to manufacturer's manual: the 4×10^5 cells were seeded in a 35 mm dish. […]
Transfected HeLa cells were imaged with a laser scanning SP5 confocal microscope (Leica Microsystems) equipped with an AF 6000 microscope and an AOBS, using a HCX PL APO×63 (NA 1.2) water immersion objective magnification. GFP was monitored with the Ar laser using the 488-nm line for excitation, and emission was detected between 492 and 570 nm. mKusabira orange fluorescent protein (mKO) was imaged using the DPSS-561 nm laser for excitation, and emission was detected between 570 and 675 nm.

Chain of Nb458-gaaEPEA (SEQ ID NO:8) (as listed by the source): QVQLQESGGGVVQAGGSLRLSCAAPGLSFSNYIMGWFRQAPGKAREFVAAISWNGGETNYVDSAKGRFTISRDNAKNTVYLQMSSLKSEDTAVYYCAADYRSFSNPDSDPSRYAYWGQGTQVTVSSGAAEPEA

B1: biNbSyn2: bivalent version of NbSyn2 (SEQ ID NO:68) with a GGGGSGGGS linker between both NbSyn2 sequences (protein)
chain: QVQLVESGGGSVQAGGSLRLSCAASGIDSSSYCMGWFRQRPGKEREGVARINGLGGVKTAYADSVKDRFTISRDNAENTVYLQMNSLKPEDTAIYYCAAKFSPGYCGGSWSNFGYWGQGTQVTVSSGGGGSGGGSQVQLQESGGGSVQAGGSLRLSCAASGIDSSSYCMGWFRQRPGKEREGVARINGLGGVKTAYADSVKDRFTISRDNAENTVYLQMNSLKPEDTAIYYCAAKFSPGYCGGSWSNFGYWGQGTQVTVSSHHHHHH
modifications: Nanobody biNbSyn2
With B1, the “Sensitivity of ELISA detection compared with monovalent NbSyn2-AP conjugate” value in test [1] is “sensitivity of detection increases”.

B2: NbSyn1a: Nanobody that specifically binds to α-synuclein, 126 amino acids, SEQ ID NO:24 (protein)
VHH: EVQLVESGGGSVQAGGSLSLACAPSGLNASSYCMGWFRQSPGKEREGVARINGNAGIKTAYADSVKDRFTLSRDNAKNTVYLQMNSLKAEDSAIYFCAAKSSPGYCGGNWDNFGYWGQGTQVTVSS
modifications: Nb_Syn1a
Regarding B2, the “Recognition of tagged Rev in double-transfected cells (colocalization in the nucleus)” value in test [2] is on record as “recognized in vivo”.
